The record followed here is paper PMC2119506.

The target in the test is CSVTCG binding protein (human (endogenous in A549)). As to the kind of experiment: radioligand binding.

In the case of “thrombospondin (from UniProt P07996 19-1170) (natural protein)”, the percent inhibition of binding was 64 % inhibition.
